This is an account of results in patent US20130209454A1.

What is called IC80 is the point of the concentration-response curve where the effect stands at 80%. Read a high IC80 as a need for much substance.

The target in assay [1] is HIV-1 Env of strain Ce704809221_1B3 (HIV-1). In words: cell-based or functional assay.
The target of assay [2] is HIV-1 Env of strain X1632_S2_B10 (HIV-1). Description: cell-based or functional assay.
For assay [3], the target named is HIV-1 Env of strain 6545.v4.c1 (HIV-1). Description: cell-based or functional assay.
The target of assay [4] is HIV-1 Env of strain 6240_08_TA5_4622 (HIV-1). In words: cell-based or functional assay.
In assay [5] the target is HIV-1 Env of strain 6540.v4.c1 (HIV-1). In words: cell-based or functional assay.
The target of assay [6] is HIV-1 Env of strain 0260.v5.c36 (HIV-1). In words: cell-based or functional assay.
For assay [7], the target named is HIV-1 Env of strain 9004SS_A3_4 (HIV-1). In words: cell-based or functional assay.
In assay [8] the target is HIV-1 Env of strain TRJO4551.58 (HIV-1). In words: cell-based or functional assay.
Assay [9] deals with HIV-1 Env of strain HIV-16055-2.3 (HIV-1). Description: cell-based or functional assay.
Assay [10] concerns the target HIV-1 Env of strain Du172.17 (HIV-1). In words: cell-based or functional assay.
The target of assay [11] is YU2 gp160 point mutant at 458gp120 (HIV-1) (UniProt P35961). Description: cell-based or functional assay.
Assay [12] concerns the target HIV-1 strain YU2 gp160 (gp120) (HIV-1) (UniProt P35961).
For assay [13], the target named is YU2 gp160 point mutant at 279gp120 (HIV-1) (UniProt P35961).
For assay [14], the target named is YU2 gp160 point mutant at 458gp120 (HIV-1) (UniProt P35961).
The target in assay [15] is Env of HIV-1 strain A07412M1.vrc12 (HIV-1). Description: cell-based or functional assay.
Assay [16] concerns the target Env of HIV-1 strain X1254_c3 (HIV-1). In words: cell-based or functional assay.
Assay [17] deals with Env of HIV-1 strain SC422661.8 (HIV-1). In words: cell-based or functional assay.
Assay [18] has as its target Env of HIV-1 strain 3415.v1.c1 (HIV-1). Description: cell-based or functional assay.
Assay [19] has as its target Env of HIV-1 strain HIV-0013095-2.11 (HIV-1). Description: cell-based or functional assay.
The target in assay [20] is Env of HIV-1 strain BJOX028000.10.3 (HIV-1). In words: cell-based or functional assay.
Assay [21] concerns the target Env of HIV-1 strain Q23.17 (HIV-1). Description: cell-based or functional assay.
In assay [22] the target is Env of HIV-1 strain Ce703010054_2A2 (HIV-1). In words: cell-based or functional assay.
Assay [23] deals with Env of HIV-1 strain BJOX015000.11.5 (HIV-1). In words: cell-based or functional assay.
For assay [24], the target named is Env of HIV-1 strain X1193_c1 (HIV-1). In words: cell-based or functional assay.
In assay [25] the target is Env of HIV-1 strain 235-47 (HIV-1). In words: cell-based or functional assay.
Assay [26] concerns the target Env of HIV-1 strain CNE5 (HIV-1). Description: cell-based or functional assay.
Assay [27] addresses Env of HIV-1 strain T250-4 (HIV-1). Description: cell-based or functional assay.
For assay [28], the target named is Env of HIV-1 strain 3301.v1.c24 (HIV-1). In words: cell-based or functional assay.
In assay [29] the target is Env of HIV-1 strain X2088_c9 (HIV-1). Description: cell-based or functional assay.
For assay [30], the target named is Env of HIV-1 strain CAP45.2.00.G3 (HIV-1). Description: cell-based or functional assay.
The target in assay [31] is Env of HIV-1 strain 1056_10_TA11_1826 (HIV-1). In words: cell-based or functional assay.
Assay [32] concerns the target Env of HIV-1 strain 3817.v2.c59 (HIV-1). Description: cell-based or functional assay.
Assay [33] deals with Env of HIV-1 strain X1632_S2_B10 (HIV-1). Description: cell-based or functional assay.

B1: NIH45-46^G54W(HC), S28Y(LC) (antibody, V domains shown)
VH: QVRLSQSGGQMKKPGESMRLSCRASGYEFLNCPINWIRLAPGRRPEWMGWLKPRWGAVNYARKFQGRVTMTRDVYSDTAFLELRSLTSDDTAVYFCTRGKYCTARDYYNWDFEHWGRGAPVTVSS
VL: EIVLTQSPATLSLSPGETAIISCRTSQYGSLAWYQQRPGQAPRLVIYSGSTRAAGIPDRFSGSRWGADYNLSISNLESGDFGVYYCQQYEFFGQGTKVQVDI
B1: the IC50, pseudovirus neutralization was 0.101 µg/mL in assay [1]; 0.001 µg/mL in assay [2]; 15.2 µg/mL in assay [3]; 0.173 µg/mL in assay [4]; over 50 µg/mL in [5]; 0.032 µg/mL in assay [6]. The figures for the IC50, pseudovirus neutralization in assay [7], in assay [8] and in assay [9] were 0.046 µg/mL, 0.004 µg/mL and 0.002 µg/mL, respectively.

B2: NIH45-46^G54F IgG (antibody, name in Kabat numbering, V domains shown)
VH: QVRLSQSGGQMKKPGESMRLSCRASGYEFLNCPINWIRLAPGRRPEWMGWLKPRFGAVNYARKFQGRVTMTRDVYSDTAFLELRSLTSDDTAVYFCTRGKYCTARDYYNWDFEHWGRGAPVTVSS
VL: EIVLTQSPATLSLSPGETAIISCRTSQSGSLAWYQQRPGQAPRLVIYSGSTRAAGIPDRFSGSRWGADYNLSISNLESGDFGVYYCQQYEFFGQGTKVQVDI
In [10], B2 came in with a neutralization IC50 of 16 µg/mL.

B3: NIH45-46^G54W IgG (antibody, name in Kabat numbering, V domains shown)
VH: QVRLSQSGGQMKKPGESMRLSCRASGYEFLNCPINWIRLAPGRRPEWMGWLKPRWGAVNYARKFQGRVTMTRDVYSDTAFLELRSLTSDDTAVYFCTRGKYCTARDYYNWDFEHWGRGAPVTVSS
VL: EIVLTQSPATLSLSPGETAIISCRTSQSGSLAWYQQRPGQAPRLVIYSGSTRAAGIPDRFSGSRWGADYNLSISNLESGDFGVYYCQQYEFFGQGTKVQVDI
With B3, the decrease of neutralization potency against YU2 in [11] was over 1500 fold. Further, the IC50, pseudovirus neutralization (TZM-bl, luciferase) with N280D (HIV-1) is over 50 µg/mL; in assay [12] it was 0.008 µg/mL; in the assay with N280Y (HIV-1) it was over 50 µg/mL; in the assay with R456W (HIV-1) it was 6 µg/mL; with G459D (HIV-1), 0.01 µg/mL; in assay [13] it was over 50 µg/mL. Moreover, the IC50, pseudovirus neutralization (TZM-bl, luciferase) in assay [14] was 18 µg/mL. The same molecule displayed a neutralization IC50 in assay [10] of 0.9 µg/mL.

B4: NIH45-46^G54W (antibody, V domains shown)
VH: QVRLSQSGGQMKKPGESMRLSCRASGYEFLNCPINWIRLAPGRRPEWMGWLKPRWGAVNYARKFQGRVTMTRDVYSDTAFLELRSLTSDDTAVYFCTRGKYCTARDYYNWDFEHWGRGAPVTVSS
VL: EIVLTQSPATLSLSPGETAIISCRTSQSGSLAWYQQRPGQAPRLVIYSGSTRAAGIPDRFSGSRWGADYNLSISNLESGDFGVYYCQQYEFFGQGTKVQVDI
Regarding B4, the IC80 in assay [15] is 0.042 µg/mL; in assay [16], 0.018 µg/mL; in assay [17], 0.07 µg/mL; in assay [18], 0.023 µg/mL; in assay [19], 0.027 µg/mL; in [20], 0.002 µg/mL. Further, the concentration for an effect of 80% (IC80) in assay [21] worked out at 0.03 µg/mL; in assay [22], 0.077 µg/mL; in assay [23], 0.239 µg/mL; in [24] it was 0.009 µg/mL; in [25], 0.017 µg/mL; in assay [26], 0.116 µg/mL. Besides, the IC80 in assay [27] was 44.9 µg/mL; in assay [28], 0.004 µg/mL; in assay [29], over 50 µg/mL; in assay [30], over 50 µg/mL; in assay [31], 0.16 µg/mL; in assay [32], over 50 µg/mL. Moreover, the IC50, pseudovirus neutralization is 0.007 µg/mL in assay [1]; 18.9 µg/mL in assay [3]; 0.11 µg/mL in assay [4]; over 50 µg/mL in assay [5]; 0.117 µg/mL in assay [6]; 0.054 µg/mL in [7]. Further, the IC50, pseudovirus neutralization in [8] turned out to be 0.01 µg/mL; in assay [9], 0.001 µg/mL.

B5: NIH45-46^G54W(HC) S28Y(LC) (antibody, V domains shown)
VH: QVRLSQSGGQMKKPGESMRLSCRASGYEFLNCPINWIRLAPGRRPEWMGWLKPRWGAVNYARKFQGRVTMTRDVYSDTAFLELRSLTSDDTAVYFCTRGKYCTARDYYNWDFEHWGRGAPVTVSS
VL: EIVLTQSPATLSLSPGETAIISCRTSQYGSLAWYQQRPGQAPRLVIYSGSTRAAGIPDRFSGSRWGADYNLSISNLESGDFGVYYCQQYEFFGQGTKVQVDI
Take B5: the IC80 in [15] is 0.064 µg/mL; in assay [16], 0.03 µg/mL; in assay [17], 0.09 µg/mL; in assay [18], 0.054 µg/mL; in assay [19], 0.017 µg/mL; in [20] it was 0.006 µg/mL. The IC80 worked out at 0.007 µg/mL in assay [33]; 0.05 µg/mL in assay [21]; 0.051 µg/mL in assay [22]; 0.308 µg/mL in assay [23]; 0.054 µg/mL in assay [24]; 0.019 µg/mL in assay [25]. Also, the IC80 in assay [26] was 0.137 µg/mL; in assay [27], 38.9 µg/mL; in [28], 0.006 µg/mL; in [29], over 50 µg/mL; in [30], 0.089 µg/mL; in [31] it was 0.289 µg/mL. In assay [32], this molecule returned an IC80 of over 50 µg/mL.
